# From IntAct's records for PubMed 24417819
# B1: Tetratricopeptide repeat protein 7A (Homo sapiens), Q9ULT0 (parent)
# chain: MAAKGAHGSYLKVESELERCRAEGHWDRMPELVRQLQTLSMPGGGGNRRGSPSAAFTFPDTDDFGKLLLAEALLEQCLKENHAKIKDSMPLLEKNEPKMSEAKNYLSSILNHGRLSPQYMCEAMLILGKLHYVEGSYRDAISMYARAGIDDMSMENKPLYQMRLLSEAFVIKGLSLERLPNSIASRFRLTEREEEVITCFERASWIAQVFLQELEKTTNNSTSRHLKGCHPLDYELTYFLEAALQSAYVKNLKKGNIVKGMRELREVLRTVETKATQNFKVMAAKHLAGVLLHSLSEECYWSPLSHPLPEFMGKEESSFATQALRKPHLYEGDNLYCPKDNIEEALLLLLISESMATRDVVLSRVPEQEEDRTVSLQNAAAIYDLLSITLGRRGQYVMLSECLERAMKFAFGEFHLWYQVALSMVACGKSAYAVSLLRECVKLRPSDPTVPLMAAKVCIGSLRWLEEAEHFAMMVISLGEEAGEFLPKGYLALGLTYSLQATDATLKSKQDELHRKALQTLERAQQLAPSDPQVILYVSLQLALVRQISSAMEQLQEALKVRKDDAHALHLLALLFSAQKHHQHALDVVNMAITEHPENFNLMFTKVKLEQVLKGPEEALVTCRQVLRLWQTLYSFSQLGGLEKDGSFGEGLTMKKQSGMHLTLPDAHDADSGSRRASSIAASRLEEAMSELTMPSSVLKQGPMQLWTTLEQIWLQAAELFMEQQHLKEAGFCIQEAAGLFPTSHSVLYMRGRLAEVKGNLEEAKQLYKEALTVNPDGVRIMHSLGLMLSRLGHKSLAQKVLRDAVERQSTCHEAWQGLGEVLQAQGQNEAAVDCFLTALELEASSPVLPFSIIPREL
# Variants of: B1
# Conditions: with PI4K2A
row,effect of a mutation on the interaction,Variant
1,decreasing interaction,E71K
2,decreasing interaction,A832T
